Experimental data published in patent US7105166.
Positions count from the first letter of the chain named. Blank lines part the entries; values can stand above or below the binder they belong to.

Columns and labels:
[1] = molecular target: B7 antigen (B7-1, CD80) expressed on cells (human) (UniProt P33681); assay: B7-1+ CHO cell enzyme immunoassay; binding activity relative to CTLA4Ig, from the concentrations giving the same A450
[2] = molecular target: B7 antigen (B7-1, CD80) expressed on cells (human) (UniProt P33681); assay: enzyme immunoassay on fixed B7-1+ CHO cells

Chain of B7 antigen (B7-1, CD80) expressed on cells (human) (P33681 35-288): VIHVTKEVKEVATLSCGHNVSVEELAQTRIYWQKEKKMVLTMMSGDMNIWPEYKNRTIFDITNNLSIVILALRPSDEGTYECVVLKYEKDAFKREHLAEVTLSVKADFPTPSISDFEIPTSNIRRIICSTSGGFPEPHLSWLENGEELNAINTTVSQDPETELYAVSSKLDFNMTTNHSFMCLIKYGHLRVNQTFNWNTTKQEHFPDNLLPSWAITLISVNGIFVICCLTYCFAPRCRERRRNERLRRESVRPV

% B7 binding activity [1]: 56%
% of wild type binding [2]: 60%
B1: CTLA4/CD28Ig hybrid fusion protein HS8 (Fc fusion, not shown: a dimerising Fc or GST)
chain: NKILVKQSPMLVAYDNAYNLSCKYASPGKATEFRASLHKGLDSAVEVCVVYGNYSQQLQVYSKTGFNCDGKLGNESVTFYLQNLYVNQTDIYFCKIELMYPPPYYLGIGNGTQIHVKGKHLCPS

% B7 binding activity [1]: 5%
B2: CTLA4/CD28Ig hybrid fusion protein HS4-B (Fc fusion, not shown: a dimerising Fc or GST)
chain: NKILVKQSPMLVAYDNAYNLSCKYSYNLFSREFRASLHKGLDSAVEVCVVYGNYSQQLQVYSKTGFNCDGKLGNESVTFYLQNLYVNQTDIYFCKIEVMYPPPYLDNEKSNGTIIYVIDPEPCPDSD

% B7 binding activity [1]: 5%
B3: CTLA4/CD28Ig hybrid fusion protein HS9 (Fc fusion, not shown: a dimerising Fc or GST)
chain: B2 chain with S25A, Y26S, N27P, L28G, F29K, S30A, R31T

% B7 binding activity [1]: 44%
% binding activity relative to CTLA4Ig [2]: 44%
B4: CTLA4/CD28Ig hybrid fusion protein HS7 (Fc fusion, not shown: a dimerising Fc or GST)
chain: NKILVKQSPMLVAYDNAYNLSCKYASPGKATEFRASLHKGLDSAVEVCVVYGNYSQQLQVYSKTGFNCDGKLGNESVTFYLQNLYVNQTDIYFCKIELMYPPPYYLGIGNGTQIYVIDPEPCPDSD
